Experimental findings from the nanobody polyreactivity screen of Harvey et al. (2022) are described below.

A short description of the series: yeast display, Sf9 membrane polyspecificity reagent, FACS + sequencing; frameworks hold sequencing errors. In a few lines: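 Using colony PCR, genes from sorted yeast display clones were amplified, then sequenced on MiSeq at 2 × 250 and filtered by CDR length. The clones had been stained with 10% biotinylated, detergent-solubilized Sf9 membrane reagent for 1 hour at 4 °C and sorted by FACS into low and high (top ~1%) gates on anti-HA and streptavidin fluorescence. Polyreactivity labels come from the gate of origin.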
As for “QVQLVESGGGLVQAGGSLRLSCAASGRTFYPSAMGWYRQAPGKERQLVAAITTSGGRTYYADSVKGRFTISRDNAKNTVYLQMNSLKPEDTAVYYCAKAYREGEGKFDYWGQGTQVTVSS”, the “polyreactivity (PSR sort gate)” value is “high polyreactivity”.
With “QVQLVESGGGLVQAGGSLPLSCAASGFIFPGYAMGWYRQAPGKERELVAVISSRGGSTKYADSVKGRFTISRDNANYSVYLQMNSLNPEDTAVYYCAAARAPRKYDSWGQGTQVTVSS” the entry was “high polyreactivity”; with “QVQLVESGGGLVQAGGSLRLSCAASGYIFFFNAMAWYRQAPGKERELVAAITRRGVSTYYADSVKGRFTISRDNAKNTVYLQMNSLKPEDTAVYYCATEHNHLGYYYWGQGTQVTVSS”, “low polyreactivity”.
For “QVQLVESGGGLVQAGGSLRLSCASSGSIFRFNVMGWYRQAPGKERELVAAITRGDSTNYADSVKGRFTISRDNAKNTVYLQMNSLKPEDTAVYYCNARLYVPYRYDYWGQGTQVTVSS”, the “polyreactivity (PSR sort gate)” value is on record as “low polyreactivity”.
Take “QVQLVESGGGLVQAGGSLRLSCAASGNIFLYYAMGWSRQAPGKERELVADIDSSGASTYYADSVKGRFTISRDNAKNNVYLQMNSLKPEDTAVYYCAAEFHWWYAGYDYGYWGQGTQVTVSS”: the “polyreactivity (PSR sort gate)” value is recorded as “low polyreactivity”.
With “QVQLVESGVGLVQAGGSLRLSCAASGFTFQQYAMAWYRQAPGKERELVASISSSGGSTYYADSVKGRFTISRDNAKNTVYLQMNSLKPEDTAVYYCNARSWVRRYIYYYWGQGTQVTVSS” the entry was “high polyreactivity”; with “QVQLVESGGGLVQAGGSLRLSCAASGSTFWFYAMGWYRQAPGKERELVAVISNYGSTYYADSVKGRFTISRDNAKNTVYLQMNSLITEDTAVYSCNKDGGGDSYWYDYWGQGTQVTVSS”, “low polyreactivity”; with “QVQLVESGGGLVQAGGRLRLSCAASGATFYVYAMGWYRQAPGKERELVATIDSTDGDTYADSVKGRCTISRDNAKKTVYLQMNSLKPEDTAGYDCAATDLNIYYGYYDSWYWYELDYWGQGTQVTVSS”, “high polyreactivity”.
With “QVQLVESGGGLVQAGGSLRLSCAASGFIFYYYTMGWYTQAPGKERELVAAISKSGGNTYYADSVKGRFTISRDNAKNTVYLQMNSLKPEVTAVYYCAASRYNTVTYYYSGQGTQVTVSS” the entry was “high polyreactivity”; with “QVQLVESGGGLVQAGGSLRLSCPASGRIFYVYAMGWYRQAPGKERELVAAITSSGGSTNYADSVKGRFTISRDNAKNTVYLQMNSLKPEDTAVYYCAAKPYYIPTRTYSHYNFWGQGTQVTVSS”, “high polyreactivity”.
To “QVQLVESGGGLVQAGGSLRLSCAASGSIFHLYAMGWYRQAPGKERELVAAITWTGGSTYYADSVKGRFTISRDNAKNTVYLQMNSLKPEDTAVYYCAARQQVRLRPGPLYYYWGQGTQVTVSS” belongs “high polyreactivity”; to “QVQLVESGGGLVQAGGSLRLSCAPSGRTFQQYAMGCYRQAPGKDREFVAAITFSGGTTYFADSVKGRFTISRDNAKNTVYFQMNSLKPEDTAVYYCAADIYYWSFYYSRYDYWGQGTQVTVSS”, “high polyreactivity”.
On to “QVQLVESGGGLVQAGGSLRLSCAASGSTFINYAMGWYRQAPGKERELVAAISRSGGTTYYADSVKGRFTISRDNAKNTVYLQMNSLKPEDTAVYYCNATLGSYARTRYYYWGQGTQVTVSS”, for which the “polyreactivity (PSR sort gate)” value is “high polyreactivity”.
To “QVQLVESGGGLVQAGGSLRLSCAASGNNFRRYAMGWSRQAPGKERELVAAITWRGGNTYYADSVKGRFTISRDIAKNTVYLQRNSLKPEDTAVYYCNRVYRQRLGRDYWGQGTQVTVSS” belongs “high polyreactivity”; to “QVQLVESGGGLVQAGGSLRLSCAASGGISHRYAMGWYRQAPGKERELVAAITASGTSTNYADSVKGRFTISRDNAKNTVYLQMNSLKPEDTAVYYCAARYYSFFYPYYYWGQGTQVTVSS”, “high polyreactivity”; to “QVQLVESGGGLVQAGGSLRLSCAASGSTFKGYAMGCYRQAPGKERELVAAISWSAGSTYYADSVKGRFTISRDNAKNTVYLQMNSLKPEDTAVYYCAKASVALRYYSYSLGRDYWGQGTQVTVSS”, “low polyreactivity”.
With “QVHLVESVGGLVQAGGSLRLSCAASGGIFCVYAMGWYRQAPGKERELVAAISNSDTSTSYADSVKGRFTISRDNAKNTVYLQMNCLKPEVTAVYYCNADSPSLSGDYWGQGTQVTVSS” the entry was “low polyreactivity”; with “QVQLVESGGGLVQAGGSLRLSCAASGRITQYTMGWYRQAPGKERELVASIRKSGSTHYADSVKGRFTISRDNAKNTVYLQMNSLKPEDTAVYYCAARTYNPLTGYGYWGQGTQVTVSS”, “high polyreactivity”.
With “QVQLVESGGGLVQAGGSLRLSCAASGRIFYKNDLGWYRQAPGTETELVATLTYSDGTTYYADSVKGRFTISRDNAKNTVYLQMNSLKPEDTAVYYCAAQTDSVESDYWGQGTQVTVSS”, the “polyreactivity (PSR sort gate)” value was “low polyreactivity”.
To “QDQLVESGGGLLQAGGSLSLSCAASGFTIYGYAMVWYRQAPGKERELVAAITNSGGRTYYADSVKGRFTISRDNAKNSVYLQMKSLKPEFTAVYFCAVDDLRGYDYWGQGTQVTVSS” belongs “low polyreactivity”.
As to “QVQLVESGGGLVQAGGSLRLSCAASGSTFGHYAMGWYRQAPGKERELVAGITDTDNHELRRLCEGRFTISRDNAKNTVYLQMTSLKPEDTAVYYCNADDTYYPLGGITGYDYWGQGTQVTVSS”, the “polyreactivity (PSR sort gate)” value is reported as “low polyreactivity”.
With “QVQLVESGGALLQAGGSLRLSCAASGRTFGYNAMGWYRQAPGKEREMVAAITYSGGRTSYADSVKGRFTISRDNAKNTVYLQMNSLKPEDTAVYYCAAQTRYYSGYNYWGQATQVTVSS”, the “polyreactivity (PSR sort gate)” value is on record as “high polyreactivity”.
With “QVQLVESGGGLVQAGGSLRLSCAASGRIFYYYALGWYRQAPGKERELVAAISSIDGTTYYADSVKGRFTISRDNAKNTVYLQMNSLKPEDTAVYYCAAEDPADQYDYWGQGTQVTVSS” the entry was “high polyreactivity”; with “QVQLVESGGGLVQAGGSLRLSCAASGRNFRKYAMGWYRQAPGKERELVAAITSSGGSTYYADSVKGRFTISRDNAKNTVYLQMNSLKPVDTAVYYCAAQKRGSPGYRRDYWGQGTQVTVSS”, “high polyreactivity”.
To “QVQLVESGGGLVQAGGSLRLSCAASGRIFVRYAMGWYRQAPGKERELVAAIRWSGGRTYYADSVKGRFTISRDNAKNTFYLQMNSLKPEDTAVYYCAVRYRDLFGYWGQGTQVTVSS” belongs “high polyreactivity”.
With “QVQLVESGGGLVQAGGSLRLTCAASGRIFTGYAMGWYRQAPWKERELVAAISRGSSTYADSVKGRFTISRDNAKNTVYLQRNSLKPEDTAVYYCAAKWRAADWWPRTSQYDYWGQGTQVTVSS” the entry was “high polyreactivity”; with “QVQHVESGGGLVQAGGSLRLSCAASGFIIQGNAMGWYRQAPGKERELVAAISSSVSTYYADSVKGRFTISRDNAKNTVYLQMNSLKPEDTAVYYCNAGFPLSLWLGDYWGQGTQVTVSS”, “low polyreactivity”.
Regarding “QVQLVESGGGLVHAGGSLRLSSAASGLIFGWYAMGWYRPAPGKEREFVASIRDGGGSTYYADSVNGRFTISRDNANNTVFLEMHSLKPEDSAVYYFAADRYPWHLQYVEYDSDFWGQGTQVTVSS”, the “polyreactivity (PSR sort gate)” value is listed as “low polyreactivity”.
As for “QVQLVESGGGLVHAGGSLRLSCAASGRTFRLYVMGWYRQAPGKERELVASITRGTGTDYADSVKGRFRISRDNAKNTVYLQMNSLKPEDTAVYYCNVKYGQPIYGEFDYWGQGTQVTVSS”, the “polyreactivity (PSR sort gate)” value is given as “low polyreactivity”.
With “QVQLVESGGGLVQAGGSLRLSCAASGFTFVQYAMGWYRQAPGKERELVATISKSGGITYYADSVKGRFTISRDNAKNTVFLQMNSLKPEVTAVYYCAAAWYYSSRGFHATWGHDYWGQGTQVTVSS” the entry was “low polyreactivity”.
